Experimental findings from patent publication US20250313643A1 (UNM RAINFOREST INNOVATIONS, published 2025) are described below.

Changes are numbered by the printed parent chain. Where only a bound is given, the exact number is not on record here.

One test has as its target T1, CCKBR peptide.
T1 construct: It may be the same as m3 or m4; also called target CCKBR peptide; target peptide (immunization and selection)
T1 peptide: CETPRIRGTGTRELE
Description: ELISA (panel 'Binding Affinity by ELISA'), OD450nm against nM scFv. The coated peptide is not named in the panel. On the technique in general: An ELISA detects its analyte on a solid surface through an enzyme-linked reagent.

Test [1] concerns the target T2, human CCKBR extracellular peptide (human, UniProt P32239 39-53).
T2 construct: domain: extracellular fragment of human CCK-BR; also called human peptide; human CCKBR peptide
The test can be described thus: indirect ELISA on human CCKBR peptide, OD450nm against nM scFv; column head 'Apparent kD (nM)'.

Test [2] concerns the target T2, human CCKBR extracellular peptide. The test can be described thus: ELISA affinity measurement.
The target is the same in test [3]. Description: Assay and target are not stated on the sheet. The Kd stands in the legend box of an in vivo plot. The text describes affinity measurement of the humanized variants against the human peptide.

B1: mscFv77-2 Parental (scFv, V domains shown)
VH: EVQLQQAGAELVRSGASVKLSCTASGFNIKDYYIHWVKQRPEQGLEWIGWIDPENGDTEYAPKFQGKATMTADTSSNTAYLQLSSLTSEDTAVYYCNAGGRFAYWGQGTLVTVSA
VL: DIVMTQSPSSLSVSAGEKVTMSCKSSQSLLNSGNQKNYLAWYQQKPGQPPKLLIYGASTRESGVPDRFTGSGSGTDFTLTISSVQAEDLAVYYCQNDHSYPYTFGGGTKLEIK
notes: Murine single-chain Fv; It has a kappa light chain; also called murine parent scFv; parental scFv
Turning to B1, the Kd was 195 nM with CCKBR peptide and 109 nM in test [1].

B2: scFv77-2 hu HC2-LC3 (scFv)
scFv: MAQVQLVQSGAEVKKPGASVKVSCKASGFNIKDYYIHWVRQAPGQGLEWIGWIDPENGDTEYAPKFQGRATMTADTSISTAYMELSRLRSDDTAVYYCNAGGRFAYWGQGTLVTVSSGGGGSGGGGSGGGGSDIQMTQSPSTLSASVGDRVTITCKSSQSLLNSGNQKNYLAWYQQKPGKAPKLLIYGASTRESGVPSRFSGSGSGTEFTLTISSLQPDDFATYYCQNDHSYPYTFGGGTKVEIKENLYFQGAAALEHHHHHH
notes: also called humanized CCKBR scFv HC2-LC3; CCKBR hscFv HC2-LC3
Consider B2, for which, in test [2], the “fold improvement in affinity compared with parental mscFv77-2” value is above 25 fold. Moreover, the figures for the Kd in test [3] and in test [1] were 3.1 nM and 4.3 nM, respectively.

B3: HC2-LC2 (scFv)
scFv (VH-linker-VL, with protease site and His tag): B2 scFv with T142S, E208D, D219E, V242L
notes: also called scFv77-2 hu HC2-LC2; scFv77-2 hu HC2-linker-LC2
For the molecule B3, the Kd in test [3] turned out to be 9.8 nM.
